Data reported in patent US20220356235A1 (STICHTING SANQUIN BLOEDVOORZIENING, published 2022).

Columns and labels:
C3b [1] = molecular target: T1, C3b (UniProt P01024 23-667; P01024 749-1663, limits assumed); assay: SPR, C3b amine-coupled to CM5 chip, FH (5-0.01953 µM) injected with 10 µM anti-FH.07 Fab′, equilibrium analysis; FH with anti-FH.07 Fab′
T1 construct: C3b has two chains (beta and alpha') derived from C3; also called purified C3b (Complement Technologies)
Protocol: (§1) Binding of FH to C3b in the presence of the anti-FH moAbs was determined by surface plasmon resonance using a Biacore T200 instrument (GE Healthcare, Little Chalfont, UK). Purified C3b (Complement Technologies) was immobilized onto a flow cell of a CM5 Biacore Sensor Chip (GE Healthcare) using standard amine coupling. The remaining flow cell was used as reference surface and prepared by performing a coupling reaction without the addition of any protein. A response of 2000 response units (RUs) was obtained after coupling with C3b. SPR experiments were performed at 37° C. using a flow rate of 10 μl/min and in phosphate buffered saline pH 7.4 (PBS, Orphi Farma) supplemented with 0.01% (w/v) Tween-20 (Merck) (PBS-T).
(§2) To determine the effect of the antibodies without interference of possible cross-linking via the moAb, recombinantly produced Fab′ fragments of the moAbs were used. Fab′ fragments were mixed with plasma purified FH (pdFH). […] Each Fab′ fragment was also injected without addition of FH to determine any interactions of the Fab′ fragments with the surfaces. The pdFH injection was followed by a dissociation of 60 seconds and surface was regenerated between each cycle by a single injection of 1 M NaCl (Merck).
(§3) Data was analyzed using Scrubber 2 (Biologic Software) affinities were determined by equilibrium analysis.

C3b [2] = molecular target: T1, C3b; assay: SPR on immobilised C3b, FH with Fab′ against FH alone
Protocol: as §1, §2

C3b [3] = molecular target: T1, C3b; assay: SPR on immobilised C3b, equilibrium analysis, FH with Fab′ against FH alone
Protocol: as §1, §2

C3b [4] = molecular target: T1, C3b; assay: SPR, C3b amine-coupled to CM5 chip, FH (5-0.01953 µM) injected with 10 µM anti-FHR-1 3B4 Fab′, equilibrium analysis; FH with anti-FHR-1 3B4 Fab′
Protocol: as §1, §2, §3

C3b [5] = molecular target: T1, C3b; assay: SPR, C3b amine-coupled to CM5 chip, FH (5-0.01953 µM) injected with 10 µM anti-FHR-1 8E4 Fab′, equilibrium analysis; FH with anti-FHR-1 8E4 Fab′
Protocol: as §1, §2

T1 sequence (P01024 23-667 limits assumed, chain 1 of 2): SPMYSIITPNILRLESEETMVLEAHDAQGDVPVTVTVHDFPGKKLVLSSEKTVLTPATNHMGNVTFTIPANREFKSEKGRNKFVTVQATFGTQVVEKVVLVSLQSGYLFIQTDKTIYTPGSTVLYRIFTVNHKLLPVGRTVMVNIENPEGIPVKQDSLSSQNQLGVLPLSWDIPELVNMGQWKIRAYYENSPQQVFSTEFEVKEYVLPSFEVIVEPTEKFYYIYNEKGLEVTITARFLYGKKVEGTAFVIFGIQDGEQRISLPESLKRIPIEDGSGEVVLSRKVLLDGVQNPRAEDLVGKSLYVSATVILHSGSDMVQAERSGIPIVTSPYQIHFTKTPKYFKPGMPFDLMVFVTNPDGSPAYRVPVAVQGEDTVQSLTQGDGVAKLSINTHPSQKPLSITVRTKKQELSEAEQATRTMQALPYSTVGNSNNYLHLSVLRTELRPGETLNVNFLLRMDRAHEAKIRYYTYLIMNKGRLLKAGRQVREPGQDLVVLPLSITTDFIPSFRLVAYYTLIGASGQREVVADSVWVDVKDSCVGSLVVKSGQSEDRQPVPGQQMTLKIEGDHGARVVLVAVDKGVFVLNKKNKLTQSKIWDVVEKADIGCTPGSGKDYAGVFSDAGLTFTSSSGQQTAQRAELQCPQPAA
T1 sequence (P01024 749-1663 limits assumed, chain 2 of 2): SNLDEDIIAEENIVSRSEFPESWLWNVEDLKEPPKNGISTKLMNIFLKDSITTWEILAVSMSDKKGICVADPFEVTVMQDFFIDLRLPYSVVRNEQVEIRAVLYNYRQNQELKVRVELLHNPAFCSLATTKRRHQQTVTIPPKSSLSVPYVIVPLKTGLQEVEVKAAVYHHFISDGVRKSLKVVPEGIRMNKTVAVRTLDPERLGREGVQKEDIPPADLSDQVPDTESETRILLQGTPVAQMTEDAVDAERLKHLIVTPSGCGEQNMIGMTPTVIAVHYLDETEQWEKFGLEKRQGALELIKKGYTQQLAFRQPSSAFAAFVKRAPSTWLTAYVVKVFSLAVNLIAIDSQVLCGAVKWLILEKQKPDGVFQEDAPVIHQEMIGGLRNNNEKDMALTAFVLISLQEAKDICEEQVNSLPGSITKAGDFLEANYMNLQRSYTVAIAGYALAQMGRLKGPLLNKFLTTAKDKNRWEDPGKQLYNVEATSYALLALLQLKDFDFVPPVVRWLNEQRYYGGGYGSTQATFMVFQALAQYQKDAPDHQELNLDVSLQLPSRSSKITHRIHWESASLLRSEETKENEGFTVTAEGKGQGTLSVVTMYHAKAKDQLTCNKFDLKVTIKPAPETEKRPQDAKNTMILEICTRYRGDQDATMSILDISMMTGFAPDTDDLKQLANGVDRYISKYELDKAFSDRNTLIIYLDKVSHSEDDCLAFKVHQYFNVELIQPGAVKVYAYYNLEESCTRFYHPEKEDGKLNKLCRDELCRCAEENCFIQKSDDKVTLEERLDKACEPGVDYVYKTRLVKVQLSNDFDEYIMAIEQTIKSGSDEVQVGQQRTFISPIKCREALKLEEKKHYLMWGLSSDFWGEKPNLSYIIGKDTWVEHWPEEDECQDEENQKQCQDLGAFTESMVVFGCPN

Binder | Kd (C3b [1]) [µM] | fold increase of measured RU against FH alone (C3b [2]) [fold] | increase in affinity of FH for C3b against FH alone (times) (C3b [3]) | Kd (C3b [4]) [µM] | Kd (C3b [5]) [µM]
FH complexed with anti-FH.07 Fab′ fragment (other, human, mature; also called FH in presence of 10 µM anti-FH.07 Fab′) EDCNELPPRRNTEILTGSWSDQTYPEGTQAIYKCRPGYRSLGNVIMVCRKGEWVALNPLRKCQKRPCGHPGDTPFGTFTLTGGNVFEYGVKAVYTCNEGYQLLGEINYRECDTDGWTNDIPICEVVKCLPVTAPENGKIVSSAMEPDREYHFGQAVRFVCNSGYKIEGDEEMHCSDDGFWSKEKPKCVEISCKSPDVINGSPISQKIIYKENERFQYKCNMGYEYSERGDAVCTESGWRPLPSCEEKSCDNPYIPNGDYSPLRIKHRTGDEITYQCRNGFYPATRGNTAKCTSTGWIPAPRCTLKPCDYPDIKHGGLYHENMRRPYFPVAVGKYYSYYCDEHFETPSGSYWDHIHCTQDGWSPAVPCLRKCYFPYLENGYNQNYGRKFVQGKSIDVACHPGYALPKAQTTVTCMENGWSPTPRCIRVKTCSKSSIDIENGFISESQYTYALKEKAKYQCKLGYVTADGETSGSITCGKDGWSAQPTCIKSCDIPVFMNARTKNDFTWFKLNDTLDYECHDGYESNTGSTTGSIVCGYNGWSDLPICYERECELPKIDVHLVPDRKKDQYKVGEVLKFSCKPGFTIVGPNSVQCYHFGLSPDLPICKEQVQSCGPPPELLNGNVKEKTKEEYGHSEVVEYYCNPRFLMKGPNKIQCVDGEWTTLPVCIVEESTCGDIPELEHGWAQLSSPPYYYGDSVEFNCSESFTMIGHRSITCIHGVWTQLPQCVAIDKLKKCKSSNLIILEEHLKNKKEFDHNSNIRYRCRGKEGWIHTVCINGRWDPEVNCSMAQIQLCPPPPQIPNSHNMTTTLNYRDGEKVSVLCQENYLIQEGEEITCKDGRWQSIPLCVEKIPCSQPPQIEHGTINSSRSSQESYAHGTKLSYTCEGGFRISEENETTCYMGKWSSPPQCEGLPCKSPPEISHGVVAHMSDSYQYGEEVTYKCFEGFGIDGPAIAKCLGEKWSHPPSCIKTDCLSLPSFENAIPMGEKKDVYKAGEQVTYTCATYYKMDGASNVTCINSRWTGRPTCRDTSCVNPPTVQNAYIVSRQMSKYPSGERVRYQCRSPYEMFGDEEVMCLNGNWTEPPQCKDSTGKCGPPPPIDNGDITSFPLSVYAPASSVEYQCQNLYQLEGNKRITCRNGQWSEPPKCLHPCVISREIMENYNIALRWTAKQKLYSRTGESVEFVCKRGYRLSSRSHTLRTTCWDGKLEYPTCAKR VH: QVQLQQSGPGLVQPSQSLSITCTVSDFSLARYGVHWIRQSPGKGLEWLGVIWSGGTADYNAAFISRLNINKDNSKSQVFFKMNSLQANDTAIYYCARNFGNYAVDYWGQGTS VL: QIVLSQSPTFLSASPGEKVTVTCRASSSVKYMHWYQQKPGASPKPWIFATSNLASGVPARFSGSGSGTSYSLTISRVEAEDAATYYCQQWSIIPPTFGNGTKLELK | 2.2 | ≥ 2 | 2.7 | – | –
FH complexed with anti-FHR-1 3B4 Fab′ fragment (other, human, mature; also called FH in presence of 10 µM anti-FHR-1 3B4 Fab′) EDCNELPPRRNTEILTGSWSDQTYPEGTQAIYKCRPGYRSLGNVIMVCRKGEWVALNPLRKCQKRPCGHPGDTPFGTFTLTGGNVFEYGVKAVYTCNEGYQLLGEINYRECDTDGWTNDIPICEVVKCLPVTAPENGKIVSSAMEPDREYHFGQAVRFVCNSGYKIEGDEEMHCSDDGFWSKEKPKCVEISCKSPDVINGSPISQKIIYKENERFQYKCNMGYEYSERGDAVCTESGWRPLPSCEEKSCDNPYIPNGDYSPLRIKHRTGDEITYQCRNGFYPATRGNTAKCTSTGWIPAPRCTLKPCDYPDIKHGGLYHENMRRPYFPVAVGKYYSYYCDEHFETPSGSYWDHIHCTQDGWSPAVPCLRKCYFPYLENGYNQNYGRKFVQGKSIDVACHPGYALPKAQTTVTCMENGWSPTPRCIRVKTCSKSSIDIENGFISESQYTYALKEKAKYQCKLGYVTADGETSGSITCGKDGWSAQPTCIKSCDIPVFMNARTKNDFTWFKLNDTLDYECHDGYESNTGSTTGSIVCGYNGWSDLPICYERECELPKIDVHLVPDRKKDQYKVGEVLKFSCKPGFTIVGPNSVQCYHFGLSPDLPICKEQVQSCGPPPELLNGNVKEKTKEEYGHSEVVEYYCNPRFLMKGPNKIQCVDGEWTTLPVCIVEESTCGDIPELEHGWAQLSSPPYYYGDSVEFNCSESFTMIGHRSITCIHGVWTQLPQCVAIDKLKKCKSSNLIILEEHLKNKKEFDHNSNIRYRCRGKEGWIHTVCINGRWDPEVNCSMAQIQLCPPPPQIPNSHNMTTTLNYRDGEKVSVLCQENYLIQEGEEITCKDGRWQSIPLCVEKIPCSQPPQIEHGTINSSRSSQESYAHGTKLSYTCEGGFRISEENETTCYMGKWSSPPQCEGLPCKSPPEISHGVVAHMSDSYQYGEEVTYKCFEGFGIDGPAIAKCLGEKWSHPPSCIKTDCLSLPSFENAIPMGEKKDVYKAGEQVTYTCATYYKMDGASNVTCINSRWTGRPTCRDTSCVNPPTVQNAYIVSRQMSKYPSGERVRYQCRSPYEMFGDEEVMCLNGNWTEPPQCKDSTGKCGPPPPIDNGDITSFPLSVYAPASSVEYQCQNLYQLEGNKRITCRNGQWSEPPKCLHPCVISREIMENYNIALRWTAKQKLYSRTGESVEFVCKRGYRLSSRSHTLRTTCWDGKLEYPTCAKR VH: QVQLRQSGPGLVQPSQSLSITCTVSGFSLTNYGVYWVRQSPGKGLEWLGVIWSGGTTDYSAAFISRLSISKDNSKSQVFFKMNSLQADDTAIYYCARNFGNYAMDYWGQGTSVTVSS VL: QIVLSQSPTILSASPGEKVTMTCRASSSVTYMHWYQQKPGSSPKPWIYATSNLASGVPARFSGSGSGTSYSLTISRVEAEDAATYYCQQRSSSNPLTFGAGTKLELK | – | ≥ 2 | 3.2 | 1.9 | –
FH complexed with anti-FHR-1 8E4 Fab′ fragment (other, human, mature; also called FH in presence of 10 µM anti-FHR-1 8E4 Fab′) EDCNELPPRRNTEILTGSWSDQTYPEGTQAIYKCRPGYRSLGNVIMVCRKGEWVALNPLRKCQKRPCGHPGDTPFGTFTLTGGNVFEYGVKAVYTCNEGYQLLGEINYRECDTDGWTNDIPICEVVKCLPVTAPENGKIVSSAMEPDREYHFGQAVRFVCNSGYKIEGDEEMHCSDDGFWSKEKPKCVEISCKSPDVINGSPISQKIIYKENERFQYKCNMGYEYSERGDAVCTESGWRPLPSCEEKSCDNPYIPNGDYSPLRIKHRTGDEITYQCRNGFYPATRGNTAKCTSTGWIPAPRCTLKPCDYPDIKHGGLYHENMRRPYFPVAVGKYYSYYCDEHFETPSGSYWDHIHCTQDGWSPAVPCLRKCYFPYLENGYNQNYGRKFVQGKSIDVACHPGYALPKAQTTVTCMENGWSPTPRCIRVKTCSKSSIDIENGFISESQYTYALKEKAKYQCKLGYVTADGETSGSITCGKDGWSAQPTCIKSCDIPVFMNARTKNDFTWFKLNDTLDYECHDGYESNTGSTTGSIVCGYNGWSDLPICYERECELPKIDVHLVPDRKKDQYKVGEVLKFSCKPGFTIVGPNSVQCYHFGLSPDLPICKEQVQSCGPPPELLNGNVKEKTKEEYGHSEVVEYYCNPRFLMKGPNKIQCVDGEWTTLPVCIVEESTCGDIPELEHGWAQLSSPPYYYGDSVEFNCSESFTMIGHRSITCIHGVWTQLPQCVAIDKLKKCKSSNLIILEEHLKNKKEFDHNSNIRYRCRGKEGWIHTVCINGRWDPEVNCSMAQIQLCPPPPQIPNSHNMTTTLNYRDGEKVSVLCQENYLIQEGEEITCKDGRWQSIPLCVEKIPCSQPPQIEHGTINSSRSSQESYAHGTKLSYTCEGGFRISEENETTCYMGKWSSPPQCEGLPCKSPPEISHGVVAHMSDSYQYGEEVTYKCFEGFGIDGPAIAKCLGEKWSHPPSCIKTDCLSLPSFENAIPMGEKKDVYKAGEQVTYTCATYYKMDGASNVTCINSRWTGRPTCRDTSCVNPPTVQNAYIVSRQMSKYPSGERVRYQCRSPYEMFGDEEVMCLNGNWTEPPQCKDSTGKCGPPPPIDNGDITSFPLSVYAPASSVEYQCQNLYQLEGNKRITCRNGQWSEPPKCLHPCVISREIMENYNIALRWTAKQKLYSRTGESVEFVCKRGYRLSSRSHTLRTTCWDGKLEYPTCAKR VH: QVQLKQSGPGLVQPSQSLSITCTVSDFSLTNSGVHWVRQSPGKGLEWLGVIWSGGTTEYNAAFMSRLTITKDNSKSQVFFKMNSLLVDDTGIYYCARNFGNYAVDYWGQGTSVTVSS VL: QIVLSQSPAILSASPGEKVTMTCRASSSVRYMHWYQQKAGSSPTAWIFATSNLASGVPPRFSGSGSGTSYSLTISRVEAEDAATYYCQQWGTKPPTFGAGTKLELK | – | ≥ 2 | 3.6 | – | 1.66
